Molecular target: SBW25 RimK (P. fluorescens SBW25) (UniProt C3KE61)
Sequence of UniProt C3KE61 (C3KE61 whole entry): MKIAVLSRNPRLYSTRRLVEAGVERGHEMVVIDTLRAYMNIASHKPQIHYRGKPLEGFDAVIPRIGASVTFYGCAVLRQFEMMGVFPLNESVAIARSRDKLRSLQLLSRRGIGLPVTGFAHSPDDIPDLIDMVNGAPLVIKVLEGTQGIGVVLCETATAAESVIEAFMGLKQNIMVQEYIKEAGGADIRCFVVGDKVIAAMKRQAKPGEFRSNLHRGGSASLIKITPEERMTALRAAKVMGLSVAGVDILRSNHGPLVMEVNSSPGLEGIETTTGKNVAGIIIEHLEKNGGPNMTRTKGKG

Question: How did the ATPase specific activity of SBW25 RimK (3.8 μM) with RimB (6.0 μM), linked PK/LDH assay; RimK only 47 nmol/min/mg RimK turn out when SBW25 RimB (enzyme) was run?
Answer: The ATPase specific activity of SBW25 RimK (3.8 μM) with RimB (6.0 μM), linked PK/LDH assay; RimK only 47 nmol/min/mg RimK was 196 nmol/min/mg.
